Experimental findings from patent publication US20200317776A1 (published 2020) are described below.

For orientation: Kd means a measure of binding affinity in units of concentration.

Numbering of substitutions follows the chain as printed.

Sequences and labels used below:
T1: human TREM2 Fc fusion (entire TREM2 ECD; only one Fc arm fused to TREM2) (human, UniProt Q9NZC2 19-174)
T1 construct: also called huTREM2-Fc; recombinant hTREM2
T1 sequence: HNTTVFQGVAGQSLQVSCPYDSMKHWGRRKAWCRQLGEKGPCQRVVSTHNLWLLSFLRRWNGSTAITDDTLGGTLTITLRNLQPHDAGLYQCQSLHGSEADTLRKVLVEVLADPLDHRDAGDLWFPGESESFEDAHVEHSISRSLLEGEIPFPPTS

T2: human TREM2 expressed on cells (human, UniProt Q9NZC2 19-230)
T2 construct: BW5147.G.1.4 cells stably expressing human TREM2 together with Dap12, or endogenous TREM2 of primary human myeloid cells; also called huT2 BW; hTREM2 expressing cell line
T2 sequence: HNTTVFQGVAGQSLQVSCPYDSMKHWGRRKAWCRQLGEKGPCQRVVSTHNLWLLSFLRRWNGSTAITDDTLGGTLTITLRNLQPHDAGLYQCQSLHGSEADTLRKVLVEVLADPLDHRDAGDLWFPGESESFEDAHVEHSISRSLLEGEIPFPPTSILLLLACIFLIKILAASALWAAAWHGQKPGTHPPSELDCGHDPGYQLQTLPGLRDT

T3: cynomolgus monkey TREM2 Fc fusion (entire TREM2 ECD; only one Fc arm fused to TREM2) (cynomolgus monkey, UniProt Q9NZC2 19-174 (human entry))
T3 construct: also called cyno TREM2-Fc
T3 chain: T1 sequence with A10E, W60R, L89F, F125V

B1: AL2p-7 (antibody, V domains shown)
VH: QVQLVQSGAEVKKPGSSVKVSCKASGYAFSLSWMNWVRQAPGQGLEWMGRIYPGDGDTNYAQKFRGRVTITADESTSTAYMELSSLRSEDTAVYYCARLLRNQPGESYAMDYWGQGTLVTVSS
VL: GVVMTQTPLSLSVTPGQPASISCRSSQSLIHSNGYTYLHWYLQKPGQSPQLLIYKVSNRRSGVPDRFSGSGSGTDFTLKISRVEAEDVGVYYCSQSTRVPYTFGQGTKLEIK
notes: Fab and IgG formats under one id
B2: AL2p-12 (antibody, V domains shown)
VH: B1 VH with L31S, S32H, Q62H, R65Q
VL: B1 VL with I30V
notes: as for B1
B3: AL2p-14 (antibody, V domains shown)
VH: B1 VH with L31S, S32H, R65Q
VL: B1 VL with Q27R, I30V, R60F
notes: as for B1
B4: AL2p-20 (antibody, V domains shown)
VH: B1 VH with L31S, S32H, Q62R, R65Q
VL: B1 VL with S25T, I30V, R60V
notes: as for B1
B5: AL2p-22 (antibody, V domains shown)
VH: B1 VH with L31S, S32H, Q62Y, R65Q
VL: B1 VL with Q27R, I30V
notes: as for B1
B6: AL2p-10 (antibody, V domains shown)
VH: B1 VH with L31S, S32D, R65Q
VL: B1 VL with I30V
notes: as for B1
B7: AL2p-13 (antibody, V domains shown)
VH: B1 VH with L31S, S32H, R65K
VL: B1 VL
notes: Fab and IgG formats under one id; also called AL22-13
B8: AL2p-11 (antibody, V domains shown)
VH: B1 VH with L31S, S32D, Q62R, R65Q
VL: B1 VL with G1D, Q27R, I30V, R60V
notes: as for B1
B9: AL2p-24 (antibody, V domains shown)
VH: B1 VH with L31S, S32H, D55G, R65Q
VL: B1 VL with Q27R, I30V, R60F
notes: as for B1
B10: AL2p-19 (antibody, V domains shown)
VH: B1 VH with L31S, S32H, Q62R, R65Q
VL: B1 VL with G1D, Q27R, I30V, R60V
notes: as for B1
B11: AL2p-18 (antibody, V domains shown)
VH: B1 VH with L31S, S32H, F64W, R65Q, E106S
VL: B1 VL with S25T, I30V, R60V
notes: as for B1
B12: AL2p-27 (antibody, V domains shown)
VH: B1 VH with L31S, S32H, D55Q, R65Q
VL: B1 VL with Q27R, I30V, R60V
notes: as for B1
B13: AL2p-21 (antibody, V domains shown)
VH: B1 VH with L31S, S32H, Q62W, R65Q
VL: B1 VL with Q27S, I30V, R60K
notes: as for B1
B14: AL2p-25 (antibody, V domains shown)
VH: B1 VH with L31S, S32H, D55G
VL: B1 VL with S25T, I30V, R60V
notes: as for B1
B15: AL2p-17 (antibody, V domains shown)
VH: B1 VH with L31S, S32H, F64R, R65Q
VL: B1 VL with G1D, Q27R, I30V, R60V
notes: as for B1
B16: AL2p-61 (antibody, IgG1, V domains shown)
VH: B1 VH with L31S, S32Q, D55E, Q62R, R65Q
VL: B1 VL with I30V, G34Q

The first assay has as its target T1, human TREM2 Fc fusion (entire TREM2 …). Briefly: BLI, IgG, avid. The method, then: Briefly, IgGs were loaded on-line onto AHQ sensors, Sensors were equilibrated off-line in assay buffer for 30 minutes and then monitored on-line for 60 seconds for baseline establishment. For avid binding measurement, sensors with loaded IgGs were exposed to 100 nM antigen (human or cynomolgus monkey TREM2 Fe fusion using the entire TREM2 ECD; only one Fc arm was fused to TREM2) for 3 minutes, afterwards they were transferred to assay buffer for 3 minutes for off-rate measurement. Monovalent binding measurements were obtained by loading human TREM2 Fc fusion antigens to AHQ sensor and followed by exposure to 100 nM TREM2 antibody Fab. Kinetics data were fit using a 1:1 binding model in the data analysis software provided by ForteBio. Assay was run at room temperature (25° C.).
B1 yielded an equilibrium dissociation constant (Kd) of 0.427 nM.
In the case of B2, binding was characterised by a dissociation constant (Kd) of 0.514 nM.
For B3, the Kd amounted to 0.315 nM.
Regarding B4, the Kd was 0.35 nM.
On the same count and under the same terms, the same measure for B5: 0.219 nM.
Still for that read-out and setting: the same measure for B6: 0.835 nM; for B7: 0.34 nM; for B8: 0.536 nM.
On the same count and under the same terms, the value for B9 was 0.233 nM; that for B10 was 0.303 nM.
The molecule B11 had a dissociation constant Kd of 0.229 nM.
The molecule B12 came in with a Kd of 0.274 nM.
B13 gave a Kd of 0.399 nM.
On the same count and under the same terms, the same measure for B14: 0.22 nM.
For the molecule B15, the dissociation constant (Kd) was found to be 0.255 nM.

The target of another assay is T2, human TREM2 expressed on cells. Description: FACS, hTREM2 BW cells. The text has this:
To examine cell binding of affinity matured anti-TREM2 antibodies, both primary human monocyte derived dendritic cells and recombinant, human TREM2 expressing cells were utilized. For the latter, BW5147.G.1.4 (ATCC® TIB48™) and HEK293T cells stably expressing human TREM2 together with Dap12 using viral infection were established. For primary human monocyte derived dendritic cells, human monocytes were isolated from whole blood using RosetteSep Human monocyte enrichment cocktail (Stemcell technologies) and Ficoll centrifugation per manufacturer protocols. After lysing red blood cells with ACK lysing buffer, monocytes were resuspended in complete media (RPMI, 10% FBS, Pen/Strep, L-glutamine, HEPES, non-essential amino acid, Sodium pyruvate) with 100 ng/ml human GM-CSF (hu-GMCSF) and, human IL-4 (hu-IL-4) to differentiate dendritic cells for 6 days.
Cells were harvested by trypsinization (Hek293T) or scraping (BW and dendritic cells), washed in PBS, counted and plated on 96-well U bottom plates at […] cells/well. The plates were spun at 1,400 rpm for 3 minutes and primary TREM2 or control antibodies were added in FACS buffer (PBS+2% FBS) and incubated on ice for one hour. Cells were subsequently centrifuged as before and washed thrice with FACS buffer. Cells were then incubated with anti-human PE conjugated secondary antibody (BD Biosciences) in FACS buffer for 30 minutes on ice. Cells were again washed thrice with FACS buffer and analyzed on a BD FACS Canto or an Intellicyt Flow Cytometer. Binding was measured as mean fluorescence intensity in the APC channel.
For orientation: In flow cytometry, cells or beads pass a laser one at a time.
The molecule B1 yielded a Kd of 1.6 nM.
Molecule B2 displayed a Kd of 1.8 nM.
In turn, B3 displayed a Kd of 2.1 nM.
On to B4, for which the dissociation constant (Kd) was 1.2 nM.
B5 returned a Kd of 1.5 nM.
B6: the Kd turned out to be 3.1 nM.
As for B7, the Kd came to 1.5 nM.
Same read-out and setting: the value for B8 was 2.4 nM; that for B9 was 1.7 nM; that for B10 was 1.4 nM.
The same measure, in the same setting: the same measure for B11: 1.3 nM; for B12: 1.5 nM.
In turn, B13 showed a Kd of 1.5 nM.
The molecule B14 had a Kd of 1.7 nM.
On the same count and under the same terms, the same measure for B15: 1.4 nM.

Another assay deals with T1, human TREM2 Fc fusion (entire TREM2 …). Description: BLI, Fab, monovalent. (In general: BLI is a label-free optical method that tracks binding on a fibre tip over time.)
For B1, the affinity, expressed as Kd, was 8.38 nM.
B2 registered a Kd of 5.86 nM.
In turn, B3 registered a Kd of 4.74 nM.
B4 yielded an equilibrium dissociation constant (Kd) of 4.73 nM.
Take B5: the dissociation constant (Kd) amounted to 1.58 nM.
On the same count and under the same terms, the value for B6 was 18.5 nM; that for B7 was 4.8 nM; that for B8 was 9.83 nM.
Same read-out and setting: the same measure for B9: 2.1 nM.
As to B10, the Kd was found to be 4.02 nM.
B11 displayed a Kd of 3.17 nM.
On to B12, for which the Kd is 1.99 nM.
As to B16, the Kd was 3730 nM.
The same measure, in the same setting: the same measure for B13: 4.15 nM; for B14: 2.34 nM; for B15: 4.83 nM.

A further assay addresses T3, cynomolgus monkey TREM2 Fc fusion …. Description: BLI, Fab, monovalent.
Regarding B1, the dissociation constant Kd was 8.95 nM.
Consider B2, for which the affinity, expressed as Kd, was 5.25 nM.
As to B3, binding was characterised by a dissociation constant (Kd) of 4.66 nM.
Take B4: binding was characterised by a dissociation constant (Kd) of 4.72 nM.
In turn, B5 displayed an equilibrium dissociation constant (Kd) of 1.28 nM.
Turning to B6, binding was put at a Kd of 27.7 nM.
Regarding B7, binding was put at a Kd of 4.93 nM.
The molecule B8 displayed a Kd of 10.2 nM.
In the case of B9, binding was characterised by a dissociation constant (Kd) of 1.63 nM.
Take B10: the equilibrium dissociation constant (Kd) was determined as 4.01 nM.
Still for that read-out and setting: the same measure for B11: 2.73 nM; for B12: 1.82 nM.
B16 registered a Kd of 3.84 nM.
Still for that read-out and setting: the value for B13 was 3.84 nM.
Still for that read-out and setting: the same measure for B14: 1.76 nM; for B15: 4.62 nM.

The target of another assay is human TREM2/DAP12 fusion protein (human, UniProt O43914 41-113, limits assumed). Description: cell-based or functional assay.
Sequence of human TREM2/DAP12 fusion protein (O43914 other isoform, or with tags, fused parts or gaps limits assumed): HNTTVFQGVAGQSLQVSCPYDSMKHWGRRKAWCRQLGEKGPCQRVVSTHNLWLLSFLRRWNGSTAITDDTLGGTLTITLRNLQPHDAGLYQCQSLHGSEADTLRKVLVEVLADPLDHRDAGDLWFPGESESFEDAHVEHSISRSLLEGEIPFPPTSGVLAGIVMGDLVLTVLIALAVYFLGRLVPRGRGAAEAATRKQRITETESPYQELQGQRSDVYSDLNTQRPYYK
Turning to B1, the “Luciferase activation plate bound 33 nM IgG, FOC” value is 18.9 FOC and the “Luciferase activation soluble 10 nM IgG, FOC” value was determined as 2.35 FOC.
B2: the “Luciferase activation plate bound 33 nM IgG, FOC” value was 15.8 FOC and the “Luciferase activation soluble 10 nM IgG, FOC” value turned out to be 1.96 FOC.
For B3, in that order: 27.1 FOC and 1.79 FOC.
Take B4: the “Luciferase activation plate bound 33 nM IgG, FOC” value turned out to be 22.4 FOC and the “Luciferase activation soluble 10 nM IgG, FOC” value amounted to 2.12 FOC.
B5: the “Luciferase activation plate bound 33 nM IgG, FOC” value was 24.9 FOC and the “Luciferase activation soluble 10 nM IgG, FOC” value stood at 1.75 FOC.
As to B6, the “Luciferase activation plate bound 33 nM IgG, FOC” value is 4.63 FOC and the “Luciferase activation soluble 10 nM IgG, FOC” value turned out to be 1.6 FOC.
B7: the “Luciferase activation plate bound 33 nM IgG, FOC” value came out at 16.5 FOC and the “Luciferase activation soluble 10 nM IgG, FOC” value is 2.17 FOC.
For B8 the same measures were 23.6 FOC and 1.71 FOC.
For B9 the same measures were 24.1 FOC and 2.12 FOC.
For B10 the same measures were 25.9 FOC and 2.06 FOC.
Consider B11, for which the “Luciferase activation plate bound 33 nM IgG, FOC” value was found to be 8.46 FOC and the “Luciferase activation soluble 10 nM IgG, FOC” value was found to be 2.06 FOC.
For B12, in that order: 24.4 FOC and 2.06 FOC.
Regarding B13, the “Luciferase activation plate bound 33 nM IgG, FOC” value amounted to 13.1 FOC and the “Luciferase activation soluble 10 nM IgG, FOC” value came to 1.83 FOC.
Take B14: the “Luciferase activation plate bound 33 nM IgG, FOC” value worked out at 22.3 FOC and the “Luciferase activation soluble 10 nM IgG, FOC” value was 2.35 FOC.
For B15 the same measures were 23.8 FOC and 2.13 FOC.
